Values of other authors, collected in article PMC9598996.

Tests used:
[1] = molecular target: Cys67 (UniProt position 567, ILIEICGHKAI); conditions: native (folded) enzyme, cysteines reduced
[2] = molecular target: Cys95 (UniProt position 595, LTQIGCTLNFP); conditions: native (folded) enzyme, cysteines reduced

In the case of “HIV-1 protease (retropepsin) (Human immunodeficiency virus type 1)”, the pKa [1] is listed as “about 6” and the pKa [2] is listed as “about 6”.
